# According to paper PMC3526301:
# Target: T1, human alpha-thrombin (Homo sapiens, UniProt P00734;P00734 315-363;364-622)
# Test: bead-based fluorescence binding; apparent Kd; 50 mM Tris, 100 mM NaCl, 1 mM MgCl2, 5 mM KCl, 1 mM CaCl2, 0.01% Tween 20, pH 7.5 (selection buffer), 1 h room temperature, wa
row,Binder,Kd [nM]
1,TBV-08 (clone 8) (structured_DNA) DNA: AGCAGCACAGAGGTCAGATGGGTTGGTGTGGTTGGTGAGACCTTGCATGCGACTTGGTGAGCACGTGAGAAGTCCGTGGTAGGGCAGGTTGGGGTGACTCCTATGCGTGCTACCGTGAA,0.0081

# Target: T1, human alpha-thrombin
# Test: bead-based fluorescence binding; 50 pM aptamer; 50 mM Tris, 100 mM NaCl, 1 mM MgCl2, 5 mM KCl, 1 mM CaCl2, 0.01% Tween 20, pH 7.5 (selection buffer), 1 h room temperature, wa
row,Binder,binding result
1,clone 1 (structured_DNA) DNA: AGCAGCACAGAGGTCAGATGGGTTGGTGTGGTTGGAGCGGACTTTACCTGTGTCAGCTGCGGGGGCCGCAAGTCCGTGGTAGGGCAGGTTGGGGTGACTCCTATGCGTGCTACCGTGAA,binds
2,clone 2 (structured_DNA) DNA: AGCAGCACAGAGGTCAGATGGGTTGGTGTGGTTGGCTGATACCGGAAGGGGTGTGTGTAGCGCGGTTGAGAGTCCGTGGTAGGGCAGGTTGGGGTGACTCCTATGCGTGCTACCGTGAA,binds
3,clone 3 (structured_DNA) DNA: AGCAGCACAGAGGTCAGATGGGTTGGTGTGGTTGGTGAGTCGACTGTGTGCCTCAAGTAGAACGTAGGTGAGTCCGTGGTAGGGCAGGTTGGGGTGACTCCTATGCGTGCTACCGTGAA,binds
4,clone 4 (structured_DNA) DNA: AGCAGCACAGAGGTCAGATGGGTTGGTGTGGTTGGCTGGTCTGGGGGCGTTTACTGGGCGCGCATTTTAAAGTCCGTGGTAGGGCAGGTTGGGGTGACTCCTATGCGTGCTACCGTGAA,binds
5,clone 5 (structured_DNA) DNA: AGCAGCACAGAGGTCAGATGGGTTGGTGTGGTTGGCATTTTGACCGAATGACGTTAGCAAAATATGTTAGAGTCCGTGGTAGGGCAGGTTGGGGTGACTCCTATGCGTGCTACCGTGAA,binds
6,clone 6 (structured_DNA) DNA: AGCAGCACAGAGGTCAGATGGGTTGGTGTGGTTGGCGAGGACGCTGTGTGCGCTTCGAGGGCCTAGAAGGAGTCCGTGGTAGGGCAGGTTGGGGTGACTCCTATGCGTGCTACCGTGAA,binds
7,clone 7 (structured_DNA) DNA: AGCAGCACAGAGGTCAGATGGGTTGGTGTGGTTGGCTCTGATAACCCGGGGCTGTGGTGCGCCAGGTAGGAGTCCGTGGTAGGGCAGGTTGGGGTGACTCCTATGCGTGCTACCGTGAA,binds
8,clone 9 (structured_DNA) DNA: AGCAGCACAGAGGTCAGATGGGTTGGTGTGGTTGGCATTCGTAACTATGGGGTTCCTGTATTGGTATAGGAGTCCGTGGTAGGGCAGGTTGGGGTGACTCCTATGCGTGCTACCGTGAA,binds
9,clone 10 (structured_DNA) DNA: AGCAGCACAGAGGTCAGATGGGTTGGTGTGGTTGGTTTGCCGATGTGTGGACAGCATGTGGGGTAGAGCGAGTCCGTGGTAGGGCAGGTTGGGGTGACTCCTATGCGTGCTACCGTGAA,binds

# Target: T1, human alpha-thrombin
# Test: bead-based fluorescence binding; apparent Kd; Figure S7 legend gives 430 pM; 50 mM Tris, 100 mM NaCl, 1 mM MgCl2, 5 mM KCl, 1 mM CaCl2, 0.01% Tween 20, pH 7.5 (selection buffer), 1 h room temperature, wa
row,Binder,Kd [nM]
1,TBV-08 without primer sites (structured_DNA) DNA: GGTTGGTGTGGTTGGTGAGACCTTGCATGCGACTTGGTGAGCACGTGAGAAGTCCGTGGTAGGGCAGGTTGGGGTGACT,0.44
